Earlier results, collected in US10023622B2, “Method of immunization for reducing toxic damaged caused by oligomeric form of the amyloid-beta protein with stable amyloid beta monomers and oligomers” (ALZINOVA AB, priority 2008, dated 2018).

Settings: oxidized derivatives (cystines)

## L17C/M35C: previously published Aβ peptide disulfide mutant (Shivaprasad and Wetzel)
  Fibrillation of oxidized disulphide mutants: all fibrillate

## F19C/I32C: previously published Aβ peptide disulphide mutant (Wetzel et al.)
  Fibrillation of oxidized disulphide mutants: all fibrillate

## L17C/L34C: previously published Aβ peptide disulfide mutant (Shivaprasad and Wetzel)
  Fibrillation of oxidized disulphide mutants: all fibrillate

## F19C/L34C: previously published Aβ peptide disulphide mutant (Wetzel et al.)
  Fibrillation of oxidized disulphide mutants: all fibrillate

## F19C/A30C: previously published Aβ peptide disulphide mutant (Wetzel et al.)
  Fibrillation of oxidized disulphide mutants: all fibrillate

## V18C/L34C: previously published Aβ peptide disulphide mutant (Wetzel et al.)
  Fibrillation of oxidized disulphide mutants: all fibrillate
